Assay results published in patent US20120014941A1 (Hoffmann-La Roche, published 2012).

Legend:
[1] = target: T1, recombinant human Bv8 (PeproTech) (human, UniProt Q9HC23-2 28-108, biotinylated (Sulfo-NHS-LC-biotin) in the two competition ELISAs with coated antibody); test: phage competition ELISA, Fab displayed on phage
T1 construct: Bought protein; also called HuBv8; prokineticin-2
T1 sequence (looked up): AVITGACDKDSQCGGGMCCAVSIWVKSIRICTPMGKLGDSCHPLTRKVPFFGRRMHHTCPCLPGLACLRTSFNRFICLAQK
Protocol: (§1) MAXISORP™ microtiter plates were coated with recombinant human Bv8 (PeproTech) at 2 μg/ml in PBS overnight and then blocked with PBST buffer (0.5% BSA and 0.05% Tween 20 in PBS) for an hour at room temperature (RT). Phage from culture supernatants were incubated with serially diluted human Bv8 in PBST buffer in a tissue-culture microtiter plate for an hour at RT, after which 80 μl of the mixture was transferred to the target-coated wells for 15 minutes to capture unbound phage. The plate was washed with PBT buffer (0.05% Tween 20 in PBS), and HRP-conjugated anti-M13 (Amersham Pharmacia Biotech) was added (1:5000 in PBST buffer) for 40 minutes. The plate was washed with PBT buffer and developed by adding tetramethylbenzidine substrate (Kirkegaard and Perry Laboratories, Gaithersburg, Md.). The absorbance at 450 nm was plotted as a function of target concentration in solution to determine phage IC₅₀.

[2] = target: T1, recombinant human Bv8 (PeproTech); test: phage competition ELISA: Fab-displaying phage preincubated with serially diluted soluble human Bv8 (the concentration on the axis), unbound phage captured on plate-coated human Bv8, anti-M13-HRP; bound phage in %
Protocol: as §1

[3] = target: T1, recombinant human Bv8 (PeproTech); test: SPR (BIAcore 3000, 25 C): human Bv8 coupled to CM5 chip, IgG injected; 1:1 Langmuir fit
Source text: For binding affinity determinations of anti-Bv8 antibodies (Fab or IgG), Surface Plasmon Resonance (SRP) measurement with a BIAcore™-3000 instrument was used. Briefly, CM5 biosensor chip was activated with EDC and NHS reagents according to the supplier's instructions, and human Bv8 (PeproTech) or Cynomologus Monkey (Genentech; PUR21590) was coupled to achieve approximately 150 response units (RU), then following by blocking un-reacted groups with 1M ethanolamine. For kinetics measurements, two-fold serial dilutions of anti-Bv8 Fabs (0.19 nM to 25 nM) or IgGs (0.019 nM to 10 nM) were injected in HBS-P buffer (0.01M HEPES pH 7.4, 0.15M NaCl, 0.005% surfactant P20) at 25° C. with a flow rate of 30 μl/min. Association rates (kₒₙ) and dissociation rates (koff) were calculated using a simple one-to-one Langmuir binding model (BIAcore Evaluation Software version 3.2). The equilibrium dissociation constant (Kd) was calculated as the ratio koff/kₒₙ.

[4] = target: T1, recombinant human Bv8 (PeproTech); test: competition ELISA: IgG in serial dilution preincubated with 2 nM biotinylated human Bv8, then put on plate coated with chimeric 2B9 IgG (the competitor); bound biotin-Bv8 read with streptavidin-HRP, in %
Protocol: NUNC™ 96-well Maxisorp immunoplates (NUNC; Roskilde, Denmark) were coated with chimeric 2B9 IgG at 1 μg/mL in PBS overnight and then blocked for an hour at room temperature with PBST buffer (0.5% BSA and 0.05% Tween 20 in PBS). Biotinylation of human Bv8 was prepared using EZ-link Sulfo-NHS-LC-Biotin (Catalog 21335; Pierce; Rockford, Ill.) reagent in a molar ratio of 1:4 (HuBv8: biotin).
To determine the amount of biotinylated human Bv8 in the competition assay, threefold serially diluted biotinylated human Bv8 from 100 nM to 0.04 nM were added to the antibody-coated plates for 15 minutes. Then, the plates were washed with PBT buffer (PBS and 0.05% Tween 20). Bound biotinylated were detected using streptavidin, which were conjugated with horseradish peroxidase (Catalog 21126; Pierce; Rockford, Ill.) and diluted 1:2500 in PBST buffer. […] The optical density was read spectrophotometrically at 450 nm.
To map the Bv8 antibody epitopes with chimeric 2B9, threefold serial dilutions of IgGs (chimeric 2B9, chimeric 3F1, chimeric 2D3, chimeric 2G9 and control IgG) were first incubated with 2 nM biotinylated human Bv8, determined by the above binding assay, in PBST buffer for 1-2 hours at room temperature, and then transferring it onto antibody (chimeric 2B9 IgG; 1 μg/mL)-coated plate for 15 min. […]

[5] = target: Cynomologus Monkey Bv8 (Genentech; PUR21590) (cynomolgus monkey); test: SPR (BIAcore 3000, 25 C): cynomolgus monkey Bv8 coupled to CM5 chip, IgG injected; 1:1 Langmuir fit
[6] = target: T1, recombinant human Bv8 (PeproTech); test: competitive ELISA: antibody in serial dilution mixed with biotinylated human Bv8 (57 pM) and put on plate coated with mouse 2G9 IgG1 (m5, the competitor); streptavidin-HRP, OD 450/620; four-parameter fit
Protocol: Maxisorp 384 well plates were coated with 1 μg/ml parent mouse 2G9 IgG1 antibody at 25 μl/well in 50 mM sodium carbonate buffer, pH 9.6, at 4° C. overnight. Plates were washed with phosphate buffered saline (PBS) containing 0.05% polysorbate, pH 7.4 and blocked with PBS containing 0.5% BSA, 10 ppm Proclin, pH 7.4, at 80 μL1/well. After one-hour incubation at room temperature, plates were washed. A mixture of serially diluted humanized 2G9 antibodies (0.11 pM-180 nM) in PBS containing 0.5% BSA, 0.05% polysorbate 20, pH 7.4 and biotinylated human Bv8 (final concentration 0.5 ng/ml or 57 pM) were added at 25 μL1/well. After two hour incubation, plates were washed and horseradish peroxidase conjugated streptavidin (GE Healthcare) was added. After a final 30 minute incubation, plates were washed and the substrate 3,3′,5,5′-tetramethyl benzidine (Kirkegaard & Perry Laboratories) was added. The reaction was stopped by adding 1 M phosphoric acid and absorbance was read at 450 nm on a Multiskan Ascent reader (Thermo Scientific, Hudson, N.H.). For data analysis, the titration curves were fitted using a four-parameter nonlinear regression curve-fitting program and the IC₅₀ concentrations were determined (KaleidaGraph, Synergy Software, Reading, Pa.).

B1: h2G9.K4G1 variant CDR-H3 D95E (Fab, V domains shown)
VH: EVQLVQSGAEVKKPGASVKVSCKASGYSFTDYDMHWVRQAPGQGLEWIGYISCYNGATTYNQKFKGRVTITVDKSTSTAYLELSSLRSEDTAVYYCAREGNYGEAYAMDYWGQGTLVTVSS
VL: DIVMTQSPDSLAVSLGERATINCKASQSVDYDGDSYMNWYQQKPGQPPKLLIYAASNLESGVPDRFSGSGSGTDFTLTISSLQAEDVAVYYCQQINEDPFTFGQGTKVEIK
With B1 the “fold drop in binding affinity compared to h2G9.K4G1” value [1] was 100 fold and the “IC50 (read off the curve)” value [2] was ~4000 pM.

B2: chimeric 2G9 anti-Bv8 antibody (IgG) (antibody, V domains shown)
VH: EVQLQQSGPEVVKTGASVKISCKASGYSFTDYDMHWVKQSQGKSLEWIGYISCYNGATTYNQKFKGKATFTVDKSSTTAYMQFNSLTSEDSAVYYCARDGNYGEAYAMDYWGQGTSLTVSS
VL: DIVLTQSPASLAVSLGQRATISCKASQSVDYDGDSYMNWYQQKPGQPPKLLIYAASNLESGIPARFSGSGSGTDFTLNIHPVEEEDAATYYCQQINEDPFTFGQGTKVEIK
notes: also called chimeric 2G9 IgG
With B2 the Kd [3] was 20 pM, the koff [3] was 1.8e-05 s⁻¹ and the kon [3] was 758000 M⁻¹ s⁻¹. For the same binder, the “IC50 (read off the curve)” value [4] was ~1000 pM, the Kd [5] was 40 pM and the koff [5] was 2.5e-05 s⁻¹. For the same binder, the kon [5] was 646000 M⁻¹ s⁻¹ and the IC50 [6] was 80 pM.
